From paper doi:10.1101/2021.05.23.445348

Target: SARS-CoV-2 spike receptor binding domain, wild type (SARS-CoV-2) (UniProt P0DTC2)
Assay: ITC

Question: With “CC12.1 single chain variable fragment (scFv)” as the substance, how does the Kd read?
Answer: 28 nM

Question: What about the dH of the same substance?
Answer: 4.8 kcal/mol

Question: What about the stoichiometry N of the same substance?
Answer: 1
